In patent US20250011363A1, “OPTIMIZED SHORTENED PEPTIDE THAT BINDS TO ACETYLCHOLINE RECEPTOR, AND USE THEREOF” (SKINMED CO., LTD., priority 2021, published 2025) one finds Binding affinity (RU) and Binding affinity data, which are given here for 72 molecules.

Assay [1] concerns the target acetylcholine receptor. In words: SPR, AchR immobilized on CM5 chip, peptide 10 µM. Background: SPR reads the build-up and loss of mass on a sensor chip optically.
Assay [2] has as its target acetylcholine receptor. In words: SPR, peptide at 10 uM, AchR immobilized.

KWVSKR [6mer-2-207]: the Binding affinity (RU) with acetylcholine receptor [1] was 153 RU.

As for RKNTHK [6mer-1-692], the Binding affinity with acetylcholine receptor [2] is 22 RU.

Consider RRIKAR [6mer-1-731], for which, in the assay with acetylcholine receptor [2], the Binding affinity worked out at 18 RU.

For the molecule KRFNHK [6mer-1-698], the Binding affinity in the assay with acetylcholine receptor [2] was 27 RU.

Molecule RLIYKK [6mer-2-202] came in with a Binding affinity (RU) in the assay with acetylcholine receptor [1] of 122 RU.

RKDEVR [6mer-1-688] came in with a Binding affinity with acetylcholine receptor [2] of 33 RU.

RRTTVR [6mer-1-699] registered a Binding affinity with acetylcholine receptor [2] of 28 RU.

In the assay with acetylcholine receptor [1], RLYYRK [6mer-2-209] showed a Binding affinity (RU) of 148 RU.

Take KKPSNK [6mer-1-712]: the Binding affinity with acetylcholine receptor [2] came out at 24 RU.

With RRAAVR [6mer-1-732], in the assay with acetylcholine receptor [2], the Binding affinity was 26 RU.

In the assay with acetylcholine receptor [2], KRCPVR [6mer-1-689] registered a Binding affinity of 11 RU.

On to KKDAEK [6mer-1-719], for which, in the assay with acetylcholine receptor [2], the Binding affinity came out at 27 RU.

With KKMHHR [6mer-1-710], the Binding affinity in the assay with acetylcholine receptor [2] was determined as 21 RU.

KRMAAK [6mer-1-678] gave a Binding affinity with acetylcholine receptor [2] of 25 RU.

KRADVK [6mer-1-695]: the Binding affinity with acetylcholine receptor [2] came out at 13 RU.

RSQQRK [6mer-2-208]: in the assay with acetylcholine receptor [1], the Binding affinity (RU) was found to be 128 RU.

In the assay with acetylcholine receptor [1], KWQYKK [6mer-2-206] came in with a Binding affinity (RU) of 148 RU.

On to KSFQRK [6mer-2-205], for which the Binding affinity (RU) in the assay with acetylcholine receptor [1] worked out at 147 RU.

KRTSFK [6mer-1-714] registered a Binding affinity in the assay with acetylcholine receptor [2] of 25 RU.

Molecule RRVQKR [6mer-2-204] had a Binding affinity (RU) in the assay with acetylcholine receptor [1] of 142 RU.

KKAEER [6mer-1-679]: in the assay with acetylcholine receptor [2], the Binding affinity came out at 30 RU.

Take RKMEIR [6mer-1-672]: in the assay with acetylcholine receptor [2], the Binding affinity was found to be 17 RU.

In the assay with acetylcholine receptor [2], KRPKNK [6mer-1-724] had a Binding affinity of 19 RU.

As to RRDNAR [6mer-1-728], the Binding affinity with acetylcholine receptor [2] is 23 RU.

For the molecule RKPKAR [6mer-1-691], the Binding affinity in the assay with acetylcholine receptor [2] stood at 31 RU.

KKDPPR [6mer-1-680]: the Binding affinity with acetylcholine receptor [2] turned out to be 27 RU.

In the assay with acetylcholine receptor [2], RKYTKR [6mer-1-694] returned a Binding affinity of 27 RU.

In turn, KRNNDR [6mer-1-684] yielded a Binding affinity with acetylcholine receptor [2] of 20 RU.

Molecule RKANGK [6mer-1-727] registered a Binding affinity in the assay with acetylcholine receptor [2] of 29 RU.

For RRNKVR [6mer-1-722], the Binding affinity with acetylcholine receptor [2] is 12 RU.

As for KKKDIR [6mer-1-682], the Binding affinity with acetylcholine receptor [2] was 30 RU.

As for RRPTNR [6mer-1-697], in the assay with acetylcholine receptor [2], the Binding affinity turned out to be 13 RU.

The molecule KKATNK [6mer-1-713] showed a Binding affinity with acetylcholine receptor [2] of 20 RU.

As to KRDWVK [6mer-1-702], the Binding affinity with acetylcholine receptor [2] was determined as 31 RU.

The molecule KKHCNR [6mer-1-696] had a Binding affinity with acetylcholine receptor [2] of 18 RU.

In the assay with acetylcholine receptor [2], KRHEDR [6mer-1-717] had a Binding affinity of 22 RU.

KKYEVR [6mer-1-686] had a Binding affinity with acetylcholine receptor [2] of 25 RU.

In the assay with acetylcholine receptor [2], RKFKAR [6mer-1-718] yielded a Binding affinity of 23 RU.

Take RKKMWK [6mer-1-700]: in the assay with acetylcholine receptor [2], the Binding affinity was 19 RU.

In the case of RRAMPK [6mer-1-673], the Binding affinity in the assay with acetylcholine receptor [2] stood at 16 RU.

Take RREWIK [6mer-1-687]: in the assay with acetylcholine receptor [2], the Binding affinity is 23 RU.

In the assay with acetylcholine receptor [2], KRMKDR [6mer-1-706] came in with a Binding affinity of 29 RU.

Regarding RKMPAK [6mer-1-723], the Binding affinity in the assay with acetylcholine receptor [2] was 33 RU.

With KRFWPK [6mer-1-707], in the assay with acetylcholine receptor [2], the Binding affinity amounted to 26 RU.

Take RKIDMK [6mer-1-693]: in the assay with acetylcholine receptor [2], the Binding affinity was found to be 22 RU.

In the assay with acetylcholine receptor [2], KKDKPK [6mer-1-725] yielded a Binding affinity of 32 RU.

Take KRATFR [6mer-1-730]: the Binding affinity with acetylcholine receptor [2] amounted to 13 RU.

For the molecule RKHPKK [6mer-1-674], the Binding affinity with acetylcholine receptor [2] amounted to 32 RU.

Take KRDSMR [6mer-1-683]: the Binding affinity with acetylcholine receptor [2] came out at 16 RU.

In the assay with acetylcholine receptor [2], KKDWNR [6mer-1-670] had a Binding affinity of 11 RU.

The molecule KRCPWR [6mer-1-676] showed a Binding affinity with acetylcholine receptor [2] of 16 RU.

RSQSRR [6mer-2-210] returned a Binding affinity (RU) in the assay with acetylcholine receptor [1] of 128 RU.

Regarding RRMCER [6mer-1-704], the Binding affinity in the assay with acetylcholine receptor [2] worked out at 16 RU.

In the assay with acetylcholine receptor [2], KKFKPK [6mer-1-709] gave a Binding affinity of 29 RU.

Regarding RRMPFK [6mer-1-716], the Binding affinity with acetylcholine receptor [2] came out at 11 RU.

Regarding RRATHR [6mer-1-711], in the assay with acetylcholine receptor [2], the Binding affinity was determined as 19 RU.

In turn, RKAMEK [6mer-1-721] registered a Binding affinity with acetylcholine receptor [2] of 22 RU.

For KSRTKR [6mer-2-203], the Binding affinity (RU) in the assay with acetylcholine receptor [1] amounted to 135 RU.

KRMMVK [6mer-1-715] had a Binding affinity with acetylcholine receptor [2] of 18 RU.

Consider RRKTWR [6mer-1-701], for which the Binding affinity with acetylcholine receptor [2] was found to be 13 RU.

Consider KREAER [6mer-1-690], for which the Binding affinity with acetylcholine receptor [2] stood at 21 RU.

In the case of KKHSMK [6mer-1-726], the Binding affinity with acetylcholine receptor [2] turned out to be 33 RU.

With RRESWK [6mer-1-685], the Binding affinity in the assay with acetylcholine receptor [2] amounted to 14 RU.

With KKNMVR [6mer-1-671], the Binding affinity with acetylcholine receptor [2] turned out to be 11 RU.

In the assay with acetylcholine receptor [2], KKKSGK [6mer-1-729] yielded a Binding affinity of 23 RU.

On to KKCCFR [6mer-1-677], for which the Binding affinity with acetylcholine receptor [2] was 22 RU.

RRKHKR [6mer-1-720] displayed a Binding affinity with acetylcholine receptor [2] of 11 RU.

The molecule KKFHPR [6mer-1-703] returned a Binding affinity with acetylcholine receptor [2] of 18 RU.

As for KKEWKK [6mer-1-681], in the assay with acetylcholine receptor [2], the Binding affinity stood at 32 RU.

KKKHEK [6mer-1-708]: the Binding affinity in the assay with acetylcholine receptor [2] is 14 RU.

In the assay with acetylcholine receptor [2], KRTEWR [6mer-1-705] had a Binding affinity of 12 RU.

In the case of KKIWKR [6mer-1-675], the Binding affinity with acetylcholine receptor [2] came out at 21 RU.
